Results on one substance are retold here after patent US20260234261A1.

Common to all, as to experiment: FACS binding
The target in test [1] is CHOS-hCCR8-hCTLA-4 cell (human) (UniProt P16410).
Test [2] has the same target. This is another data set of the same source.
For test [3] the target is unchanged. The source holds these as a separate data set.

pEC50: −log10 of the molar value. Read-outs that look alike come from different tables or passages of the source.

Chain of CHOS-hCCR8-hCTLA-4 cell (human) (P16410 36-223, chain 1 of 2): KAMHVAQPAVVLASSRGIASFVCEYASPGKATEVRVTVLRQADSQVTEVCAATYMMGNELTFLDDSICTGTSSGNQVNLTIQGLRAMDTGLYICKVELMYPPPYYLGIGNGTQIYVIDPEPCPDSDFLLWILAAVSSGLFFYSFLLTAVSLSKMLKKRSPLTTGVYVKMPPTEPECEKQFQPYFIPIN
Chain of CHOS-hCCR8-hCTLA-4 cell (human) (P51685 whole entry, chain 2 of 2, further chain): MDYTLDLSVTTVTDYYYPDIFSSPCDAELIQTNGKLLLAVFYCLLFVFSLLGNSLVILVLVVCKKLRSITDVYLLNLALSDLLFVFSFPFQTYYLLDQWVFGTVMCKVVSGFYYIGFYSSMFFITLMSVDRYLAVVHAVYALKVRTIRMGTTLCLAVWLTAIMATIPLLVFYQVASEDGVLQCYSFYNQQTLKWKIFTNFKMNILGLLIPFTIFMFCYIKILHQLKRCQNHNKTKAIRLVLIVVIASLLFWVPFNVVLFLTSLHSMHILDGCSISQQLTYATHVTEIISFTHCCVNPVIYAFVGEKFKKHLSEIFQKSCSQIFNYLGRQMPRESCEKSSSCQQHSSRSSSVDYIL

For Yervoy, the results for the negative-log EC50 (pEC50) in test [1], in test [2] and in test [3] were 9.14, 9.17 and 9.13, respectively.
